Data set [1] deals with protein phosphatase inhibitor 2 (I-2).
Data set [2] has as its system Kemptide (a peptide substrate for PKA).

As for p42 MAP kinase (Erk2), the “phosphorylation (33P-γ-ATP, autoradiography emulsion on slide)” value (“phosphorylation” for short) in the data set with Elk1 is “only the specific substrates of these kinases (I-2 and Elk1, respectively) were phosphorylated”; in data set [1], “only the specific substrates of these kinases (I-2 and Elk1, respectively) were phosphorylated (I-2 not phosphorylated by Erk2)”; in data set [2], “only the specific substrates of these kinases (I-2 and Elk1, respectively) were phosphorylated (Kemptide not phosphorylated by Erk2)”.
As to casein kinase II (CKII), the “phosphorylation” value is “only the specific substrates of these kinases (I-2 and Elk1, respectively) were phosphorylated (Elk1 not phosphorylated by CKII)” in the data set on Elk1; “only the specific substrates of these kinases (I-2 and Elk1, respectively) were phosphorylated” in data set [1]; “only the specific substrates of these kinases (I-2 and Elk1, respectively) were phosphorylated (Kemptide not phosphorylated by CKII)” in data set [2].
Regarding “catalytic subunit of cAMP-dependent protein kinase (PKA)”, the “phosphorylation” value is “only the substrate for PKA (Kemptide) was phosphorylated (Elk1 not phosphorylated)” with Elk1, “only the substrate for PKA (Kemptide) was phosphorylated (I-2 not phosphorylated)” in data set [1] and “only the substrate for PKA (Kemptide) was phosphorylated” in data set [2].

Values taken from patent US20020102617.
